Target: Recombinant human Rac1 (Q2-L177) (human, UniProt P63000 2-177)
Experiment: AlphaScreen or HTRF; 30 nM His-Rac1 pre-incubated with compound 30 min at room temperature, then 300 nM FLAG-Tiam1, 2 nM anti-His-Eu3+, 20 nM anti-FLAG-XL665; 50 mM Hepes pH 7.6, 100 mM NaCl, 1 mM DTT, 10 mM MgCl2, 0.1% Nonidet P-40; titration of NSC23766, DW0069 or DW0254
Details: both partners purified

B1: Truncated recombinant human Tiam1 (R1033-E1406) (domain or fragment)
chain: RQLSDADKLRKVICELLETERTYVKDLNCLMERYLKPLQKETFLTQDELDVLFGNLTEMVEFQVEFLKTLEDGVRLVPDLEKLEKVDQFKKVLFSLGGSFLYYADRFKLYSAFCASHTKVPKVLVKAKTDTAFKAFLDAQNPKQQHSSTLESYLIKPIQRILKYPLLLRELFALTDAESEEHYHLDVAIKTMNKVASHINEMQKIHEEFGAVFDQLIAEQTGEKKEVADLSMGDLLLHTTVIWLNPPASLGKWKKEPELAAFVFKTAVVLVYKDGSKQKKKLVGSHRLSIYEDWDPFRFRHMIPTEALQVRALASADAEANAVCEIVHVKSESEGRPERVFHLCCSSPESRKDFLKAVHSILRDKHRRQLLKTE
notes: human Tiam1, residues R1033-E1406, pTriIJ-HV vector; also called FLAG-tagged Tiam1; not shown: FLAG, N-terminal, kept
binding result: binds
